Reference: the Immune Epitope Database (IEDB)

Legend:
HLA-A*68:02 = experiment: IEDB peptide-MHC binding, cellular MHC/competitive/fluorescence; ≥ and ≤ were set here for values at or beyond the usual limits of such assays
HLA-A*02:02 = experiment: IEDB peptide-MHC binding, purified MHC/competitive/radioactivity; ≥ and ≤ were set here for values at or beyond the usual limits of such assays
HLA-A*02:06 = experiment: as above
HLA-A*02:03 = experiment: as above
HLA-A*02:01 = experiment: as above
[1] = source organism: Hepacivirus hominis
[2] = source organism: Vaccinia virus WR
[3] = source organism: Influenza A virus
[4] = source organism: Mammarenavirus whitewaterense

| Sequence | IC50 (HLA-A*68:02; [2]) | IC50 (HLA-A*02:02; [2]) | IC50 (HLA-A*02:06; [2]) | IC50 (HLA-A*02:03; [2]) | IC50 (HLA-A*02:01; [2]) | further results |
| --- | --- | --- | --- | --- | --- | --- |
| LLMALPHQA | – | – | – | – | – | IC50 (HLA-A*68:02; [1]): 9880 nM; IC50 (HLA-A*02:02; [1]): 52 nM; IC50 (HLA-A*02:06; [1]): 1560 nM; IC50 (HLA-A*02:03; [1]): 10 nM; IC50 (HLA-A*02:01; [1]): 73 nM |
| MLCLLLLSV | – | – | – | – | – | IC50 (HLA-A*68:02; [1]): 15400 nM; IC50 (HLA-A*02:02; [1]): 210 nM; IC50 (HLA-A*02:06; [1]): 326 nM; IC50 (HLA-A*02:03; [1]): 263 nM; IC50 (HLA-A*02:01; [1]): 142 nM |
| AAVTLNRIKI | 5980 nM | 830 nM | 1920 nM | 3490 nM | 2320 nM | – |
| ALMTLDDLAI | 7700 nM | 14 nM | 24 nM | 29 nM | 0.74 nM | – |
| LVTSFLLMIV | – | – | – | – | – | IC50 (HLA-A*68:02; source organism: SARS-CoV1): 5740 nM; IC50 (HLA-A*02:02; source organism: SARS-CoV1): 31 nM; IC50 (HLA-A*02:06; source organism: SARS-CoV1): 161 nM; IC50 (HLA-A*02:03; source organism: SARS-CoV1): 12 nM; IC50 (HLA-A*02:01; source organism: SARS-CoV1): 775 nM |
| FLLALLSCLT | – | – | – | – | – | IC50 (HLA-A*68:02; [1]): ≥ 70000 nM; IC50 (HLA-A*02:02; [1]): 86 nM; IC50 (HLA-A*02:06; [1]): 592 nM; IC50 (HLA-A*02:03; [1]): 154 nM; IC50 (HLA-A*02:01; [1]): 92 nM |
| VMWKCLIRL | – | – | – | – | – | IC50 (HLA-A*68:02; [1]): 7600 nM; IC50 (HLA-A*02:02; [1]): 377 nM; IC50 (HLA-A*02:06; [1]): 947 nM; IC50 (HLA-A*02:03; [1]): 823 nM; IC50 (HLA-A*02:01; [1]): 53 nM |
| RLIQNSITI | – | – | – | – | – | IC50 (HLA-A*68:02; [3]): ≥ 70000 nM; IC50 (HLA-A*02:02; [3]): 137 nM; IC50 (HLA-A*02:06; [3]): 1330 nM; IC50 (HLA-A*02:03; [3]): 28 nM; IC50 (HLA-A*02:01; [3]): 84 nM |
| NLAPHLLLIV | – | – | – | – | – | IC50 (HLA-A*68:02; source organism: SARS-CoV1): 7240 nM; IC50 (HLA-A*02:02; source organism: SARS-CoV1): 5.1 nM; IC50 (HLA-A*02:06; source organism: SARS-CoV1): 125 nM; IC50 (HLA-A*02:03; source organism: SARS-CoV1): 1.1 nM; IC50 (HLA-A*02:01; source organism: SARS-CoV1): 206 nM |
| FLPQIGGEAI | 6540 nM | 1 nM | 10 nM | 14 nM | 158 nM | – |
| FMEEEIKAEM | 16800 nM | 1030 nM | 865 nM | 3070 nM | 86 nM | – |
| ILSNKLLYAA | 12000 nM | 8.1 nM | 150 nM | 1110 nM | 51 nM | – |
| LQISRVNDL | ≥ 70000 nM | 90 nM | 229 nM | 11 nM | 1700 nM | – |
| SALMTLDDLA | 19100 nM | 210 nM | 193 nM | 2320 nM | 249 nM | – |
| IMAFILGIII | 14700 nM | 632 nM | 3190 nM | 3160 nM | 1110 nM | – |
| ALDGVLSTFV | – | – | – | – | – | IC50 (HLA-A*68:02; source organism: SARS-CoV1): 5200 nM; IC50 (HLA-A*02:02; source organism: SARS-CoV1): 3.3 nM; IC50 (HLA-A*02:06; source organism: SARS-CoV1): 140 nM; IC50 (HLA-A*02:03; source organism: SARS-CoV1): 28 nM; IC50 (HLA-A*02:01; source organism: SARS-CoV1): 28 nM |
| ALVSGTATA | – | – | – | – | – | IC50 (HLA-A*68:02; source organism: SARS-CoV1): 31300 nM; IC50 (HLA-A*02:02; source organism: SARS-CoV1): 4.6 nM; IC50 (HLA-A*02:06; source organism: SARS-CoV1): 269 nM; IC50 (HLA-A*02:03; source organism: SARS-CoV1): 8.1 nM; IC50 (HLA-A*02:01; source organism: SARS-CoV1): 134 nM |

| Sequence | IC50 (HLA-A*68:02; [2]) | IC50 (HLA-A*02:02; [2]) | IC50 (HLA-A*02:06; [2]) | IC50 (HLA-A*02:03; [2]) | IC50 (HLA-A*02:01; [2]) | further results |
| --- | --- | --- | --- | --- | --- | --- |
| KIVQLPKRGV | 62600 nM | 4120 nM | 2250 nM | 51 nM | 2240 nM | – |
| FLDWIKDIM | 26800 nM | 0.78 nM | 162 nM | 297 nM | 19 nM | – |
| KINEMVDEL | 48400 nM | 1.4 nM | 317 nM | 76 nM | 291 nM | – |
| IIGEPIIVA | 6390 nM | 2320 nM | 1350 nM | 4780 nM | 1440 nM | – |
| KLLNMRDLIV | ≥ 70000 nM | 194 nM | 2.8 nM | 29 nM | 1.1 nM | – |
| LLLLSVGVGI | – | – | – | – | – | IC50 (HLA-A*68:02; [1]): 52600 nM; IC50 (HLA-A*02:02; [1]): 2570 nM; IC50 (HLA-A*02:06; [1]): 714 nM; IC50 (HLA-A*02:03; [1]): 605 nM; IC50 (HLA-A*02:01; [1]): 764 nM |
| KLLSTSNVIT | ≥ 70000 nM | 2260 nM | 1550 nM | 3350 nM | 1120 nM | – |
| ILSLETVKM | 9700 nM | 4.8 nM | 280 nM | 12 nM | 204 nM | – |
| VMFNGVTFST | – | – | – | – | – | IC50 (HLA-A*68:02; source organism: SARS-CoV1): 13700 nM; IC50 (HLA-A*02:02; source organism: SARS-CoV1): 0.69 nM; IC50 (HLA-A*02:06; source organism: SARS-CoV1): 131 nM; IC50 (HLA-A*02:03; source organism: SARS-CoV1): 75 nM; IC50 (HLA-A*02:01; source organism: SARS-CoV1): 8.5 nM |
| KIIAVFDSKL | 31700 nM | 25 nM | 59 nM | 57 nM | 978 nM | – |
| YISRDELWA | 52700 nM | 333 nM | 1200 nM | 242 nM | 750 nM | – |
| AMIHKTYIDV | 21200 nM | 335 nM | 206 nM | 27 nM | 173 nM | – |
| ALYGVWPLLL | – | – | – | – | – | IC50 (HLA-A*68:02; [1]): 20600 nM; IC50 (HLA-A*02:02; [1]): 8.9 nM; IC50 (HLA-A*02:06; [1]): 166 nM; IC50 (HLA-A*02:03; [1]): 7.5 nM; IC50 (HLA-A*02:01; [1]): 9 nM |
| FLLRGPFEAS | – | – | – | – | – | IC50 (HLA-A*68:02; [4]): 38900 nM; IC50 (HLA-A*02:02; [4]): 27 nM; IC50 (HLA-A*02:06; [4]): 70 nM; IC50 (HLA-A*02:03; [4]): 84 nM; IC50 (HLA-A*02:01; [4]): 109 nM |
| TLVPVLEKKV | 32000 nM | 112 nM | 498 nM | 100 nM | 959 nM | – |
| SLVSKHWELT | 16300 nM | 409 nM | 2680 nM | 35 nM | 96 nM | – |
| GLFDINVIGL | 7080 nM | 0.16 nM | 240 nM | 1.4 nM | 13 nM | – |
